Measurements as given in patent publication US12043670B2, “Anti-BCMA antibody-drug conjugates and methods of use” (Eisai R&D Management Co., Ltd., priority 2020, dated 2024).
Where a chain is given by its changes, count along the chain named.

B1: AB200-R1H26-R2Vk42 (antibody)
heavy: QVQLVQSGAEVKKPGSSVKVSCKASGGSFSNYWMHWVRQAPGQGLEWMGATYRIHSDTFYNQKFKGRVTITADKSTSTAYMELSSLRSEDTAVYYCARGAIYHGYDVLDNWGQGTLVTVSSASTKGPSVFPLAPSSKSTSGGTAALGCLVKDYFPEPVTVSWNSGALTSGVHTFPAVLQSSGLYSLSSVVTVPSSSLGTQTYICNVNHKPSNTKVDKKVEPKSC
light: DIQMTQSPSSLSASVGDRVTITCRASQSISSYINWYQQKPGKAPKLLIYATSNIQSGVPSRFSGSGSGTDFTLTISSLQPEDFATYYCQQYRKIPWSFGQGTKLEIKRTVAAPSVFIFPPSDEQLKSGTASVVCLLNNFYPREAKVQWKVDNALQSGNSQESVTEQDSKDSTYSLSSTLTLSKADYEKHKVYACEVTHQGLSSPVTKSFNRGEC
B2: AB200-R1H26-R2Vk17 (antibody)
heavy: B1 heavy
light: B1 light with T51A, N53S, I54L
B3: AB200-R1H32-R2Vk37 (antibody)
heavy: B1 heavy with S28T, I54S, F59Y, G66S, L108I
light: B1 light with I54L
B4: AB200-R1H32-R2Vk27 (antibody)
heavy: B1 heavy with S28T, I54S, F59Y, G66S, L108I
light: B1 light with I33L
B5: AB200-R1H26-R2Vk4 (antibody)
heavy: B1 heavy
light: B1 light with I33L, Y91F, I94L
B6: AB200-R1H26-R2Vk8 (antibody)
heavy: B1 heavy
light: B1 light with I54L, S56I, Y91F, I94L
B7: AB200-R1H32-R2Vk38 (antibody)
heavy: B1 heavy with S28T, I54S, F59Y, G66S, L108I
light: B1 light with I54L, Y91F, S97T
B8: AB200-R1H32-R2Vk28 (antibody)
heavy: B1 heavy with S28T, I54S, F59Y, G66S, L108I
light: B1 light with I33L, Y91F, S97T
B9: AB200-R1H26-R2Vk6 (antibody)
heavy: B1 heavy
light: B1 light with I54L, Y91F, I94L
B10: AB200-R1H26-R2Vk43 (antibody)
heavy: B1 heavy
light: B1 light with Y91F, S97T
B11: AB200-R1H32-R2Vk18 (antibody)
heavy: B1 heavy with S28T, I54S, F59Y, G66S, L108I
light: B1 light with T51A, N53S, I54L, Y91F, S97T
B12: AB200-R1H26-R2Vk48 (antibody)
heavy: B1 heavy
light: B1 light with I54L, S56I, Y91F, S97T
B13: AB200-R1H26-R2Vk47 (antibody)
heavy: B1 heavy
light: B1 light with I54L, S56I
B14: AB200-R1H26-R2Vk7 (antibody)
heavy: B1 heavy
light: B1 light with Y91F, I94L

Assay: ThermoFluor thermostability (Tm)
Format: physicochemical
[1] = Light chain screening Round 2, Fab, paired with heavy chain AB200_R1_VH26
[2] = Fab fragment, light chain clone paired with heavy chain AB200_R1_VH32

Row | Molecule | Tm [1] [°C] | Tm [2] [°C]
1 | B1 | 78.411 | –
2 | B2 | 78.993 | –
3 | B3 | – | 76.708
4 | B4 | – | 76.729
5 | B5 | 81.832 | –
6 | B6 | 82.921 | –
7 | B7 | – | 80.727
8 | B8 | – | 79.945
9 | B9 | 82.640 | –
10 | B10 | 82.001 | –
11 | B11 | – | 79.872
12 | B12 | 83.862 | –
13 | B13 | 78.634 | –
14 | B14 | 81.764 | –
